The assay concerns the target rat GHS-R (GHS receptor) expressed on CHO-GHSR62 cells (rat) (UniProt O08725). As to the kind of experiment: cell-based or functional assay.

The source of these data is US20090170763A1 (KENJI KANGAWA, published 2009).

Square brackets hold non-standard residues; d marks the D form. Ends that are not written are not given here. * marks the point of attachment. Octanoyl = CCCCCCCC(=O)*; Aib = CC(C)(N)C(=O)O; Octyl = CCCCCCCC*

Sequence of rat GHS-R (GHS receptor) expressed on CHO-GHSR62 cells (rat) (O08725 whole entry): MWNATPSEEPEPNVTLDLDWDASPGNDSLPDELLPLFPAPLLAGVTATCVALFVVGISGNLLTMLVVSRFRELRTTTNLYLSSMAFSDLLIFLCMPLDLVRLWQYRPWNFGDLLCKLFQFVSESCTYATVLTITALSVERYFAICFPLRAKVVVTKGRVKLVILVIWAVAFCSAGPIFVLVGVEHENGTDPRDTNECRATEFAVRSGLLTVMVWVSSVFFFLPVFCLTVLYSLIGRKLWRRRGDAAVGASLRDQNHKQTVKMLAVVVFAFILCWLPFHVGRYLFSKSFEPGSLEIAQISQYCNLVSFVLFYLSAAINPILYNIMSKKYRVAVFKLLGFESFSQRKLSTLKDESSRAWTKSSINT

B1: [Lys^5]-Ghrelin (1-5)-amide (peptide)
peptide: GSS(Octanoyl)FK-NH2
modifications: N-terminus assumed
SMILES: CCCCCCCC(=O)OC[C@H](NC(=O)[C@H](CO)NC(=O)CN)C(=O)N[C@@H](Cc1ccccc1)C(=O)N[C@@H](CCCCN)C(N)=O
Turning to B1, the Ca-releasing activity EC50 was 0.01 µM.

B2: [Lys^8]-Ghrelin (1-8)-amide (peptide)
peptide: GSS(Octanoyl)FLSPK-NH2
modifications: N-terminus assumed
SMILES: CCCCCCCC(=O)OC[C@H](NC(=O)[C@H](CO)NC(=O)CN)C(=O)N[C@@H](Cc1ccccc1)C(=O)N[C@@H](CC(C)C)C(=O)N[C@@H](CO)C(=O)N1CCC[C@H]1C(=O)N[C@@H](CCCCN)C(N)=O
In the case of B2, the Ca-releasing activity EC50 came to 0.0011 µM.

B3: [Nle^3]-hGhrelin (peptide)
peptide: GSXFLSPEHQRVQQRKESKKPPAKLQPR
modifications: position 3 (X) is norleucine (Nle)
The molecule B3 showed an Activity EC50 of 2.8 µM.

B4: [Cys^3(Octyl)]-rGhrelin (peptide)
peptide: GSC(Octyl)FLSPEHQKAQQRKESKKPPAKLQPR
The molecule B4 yielded a Ca-releasing activity EC50 of 0.0054 µM and an EC50 value of 0.0054 µM.

B5: [^DPhe^4,Lys^5]-Ghrelin (1-5)-amide (peptide)
peptide: GSS(Octanoyl)[dF]K-NH2
modifications: N-terminus assumed
SMILES: CCCCCCCC(=O)OC[C@H](NC(=O)[C@H](CO)NC(=O)CN)C(=O)N[C@H](Cc1ccccc1)C(=O)N[C@@H](CCCCN)C(N)=O
B5 came in with a Ca-releasing activity EC50 of 1.7 µM.

B6: [Lys^6]-Ghrelin (1-6)-amide (peptide)
peptide: GSS(Octanoyl)FLK-NH2
modifications: N-terminus assumed
SMILES: CCCCCCCC(=O)OC[C@H](NC(=O)[C@H](CO)NC(=O)CN)C(=O)N[C@@H](Cc1ccccc1)C(=O)N[C@@H](CC(C)C)C(=O)N[C@@H](CCCCN)C(N)=O
Molecule B6 registered a Ca-releasing activity EC50 of 0.012 µM.

B7: [Arg^8]-Ghrelin (1-8)-amide (peptide)
peptide: GSS(Octanoyl)FLSPR-NH2
modifications: N-terminus assumed
SMILES: CCCCCCCC(=O)OC[C@H](NC(=O)[C@H](CO)NC(=O)CN)C(=O)N[C@@H](Cc1ccccc1)C(=O)N[C@@H](CC(C)C)C(=O)N[C@@H](CO)C(=O)N1CCC[C@H]1C(=O)N[C@@H](CCCNC(=N)N)C(N)=O
For the molecule B7, the Ca-releasing activity EC50 was found to be 0.0011 µM.

B8: [2-^LNal^3]-hGhrelin (peptide)
peptide: GSXFLSPEHQRVQQRKESKKPPAKLQPR
modifications: position 3 (X) is 2-L-naphthylalanine (Nal)
B8 showed an Activity EC50 of 0.0082 µM and an EC50 value of 0.0082 µM.

B9: [Lys^7]-Ghrelin (1-7)-amide (peptide)
peptide: GSS(Octanoyl)FLSK-NH2
modifications: N-terminus assumed
SMILES: CCCCCCCC(=O)OC[C@H](NC(=O)[C@H](CO)NC(=O)CN)C(=O)N[C@@H](Cc1ccccc1)C(=O)N[C@@H](CC(C)C)C(=O)N[C@@H](CO)C(=O)N[C@@H](CCCCN)C(N)=O
On to B9, for which the Activity EC50 was found to be 0.011 µM.

B10: [Aib^1,His^2,^DSer^3(Octyl),^DPhe^4,Lys^5]-Ghrelin (1-5)-amide (peptide)
peptide: [Aib]H[dS](Octyl)[dF]K-NH2
modifications: N-terminus assumed
SMILES: CCCCCCCCOC[C@@H](NC(=O)[C@H](Cc1c[nH]cn1)NC(=O)C(C)(C)N)C(=O)N[C@H](Cc1ccccc1)C(=O)N[C@@H](CCCCN)C(N)=O
The molecule B10 had an Activity EC50 of 0.038 µM.

B11: [N-Tyr]-rGhrelin (peptide)
peptide: YGSS(Octanoyl)FLSPEHQKAQQRKESKKPPAKLQPR
With B11, the Ca-releasing activity EC50 is 0.12 µM.

B12: [Aib^1,His^2,Ser^3(Octyl),Lys^5]-Ghrelin (1-5)-amide (peptide)
peptide: [Aib]HS(Octyl)FK-NH2
modifications: N-terminus assumed
SMILES: CCCCCCCCOC[C@H](NC(=O)[C@H](Cc1c[nH]cn1)NC(=O)C(C)(C)N)C(=O)N[C@@H](Cc1ccccc1)C(=O)N[C@@H](CCCCN)C(N)=O
B12 had an Activity EC50 of 0.034 µM.
